Experiments:
[1] = target: CD28 (human) (UniProt P10747); assay: cell-based or functional assay
[2] = target: PD-L1 (human) (UniProt Q9NZQ7); assay: cell-based or functional assay
PD-L1 (human), sequence (Q9NZQ7 19-290): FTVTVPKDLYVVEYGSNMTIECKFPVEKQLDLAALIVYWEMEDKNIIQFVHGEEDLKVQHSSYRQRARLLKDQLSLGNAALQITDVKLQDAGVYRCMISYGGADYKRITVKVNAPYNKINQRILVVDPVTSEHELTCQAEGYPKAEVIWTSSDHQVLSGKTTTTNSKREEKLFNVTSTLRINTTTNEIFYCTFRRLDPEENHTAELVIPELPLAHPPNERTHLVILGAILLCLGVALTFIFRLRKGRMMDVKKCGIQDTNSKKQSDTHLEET

Substance	IL-2 release, primary T cells; K562/OKT3 (No PD-L1); 10 nM [1]	IL-2 release, primary T cells; K562/OKT3 (No PD-L1); 100 nM [1]	RLU, Jurkat/IL2 reporter; K562/OKT3 aAPC, FcR Dependent Cross-Linking (No PD-L1); 0.6 nM [1] [RLU]	RLU, Jurkat/IL2 reporter; K562/OKT3 aAPC, FcR Dependent Cross-Linking (No PD-L1); 1.9 nM [1] [RLU]	RLU, Jurkat/IL2 reporter; K562/OKT3 aAPC, FcR Dependent Cross-Linking (No PD-L1); 5.6 nM [1] [RLU]	RLU, Jurkat/IL2 reporter; K562/OKT3 aAPC, FcR Dependent Cross-Linking (No PD-L1); 16.7 nM [1] [RLU]	RLU, Jurkat/IL2 reporter; K562/OKT3 aAPC, FcR Dependent Cross-Linking (No PD-L1); 50 nM [1] [RLU]	RLU, Jurkat/IL2 reporter; K562/OKT3/PD-L1 aAPC, Combination of FcR and/or PD-L1 Dependent Cross-Linking; 0.6 nM [2] [RLU]	RLU, Jurkat/IL2 reporter; K562/OKT3/PD-L1 aAPC, Combination of FcR and/or PD-L1 Dependent Cross-Linking; 1.9 nM [2] [RLU]	RLU, Jurkat/IL2 reporter; K562/OKT3/PD-L1 aAPC, Combination of FcR and/or PD-L1 Dependent Cross-Linking; 5.6 nM [2] [RLU]	RLU, Jurkat/IL2 reporter; K562/OKT3/PD-L1 aAPC, Combination of FcR and/or PD-L1 Dependent Cross-Linking; 16.7 nM [2] [RLU]	RLU, Jurkat/IL2 reporter; K562/OKT3/PD-L1 aAPC, Combination of FcR and/or PD-L1 Dependent Cross-Linking; 50 nM [2] [RLU]	IL-2 release, primary T cells; K562/OKT3 (No PD-L1); 1 nM [1]	IL-2-luciferase RLU, Jurkat + CHO/OKT3/PD-L1 aAPC, 0.6 nM [1] [RLU]	IL-2-luciferase RLU, Jurkat + CHO/OKT3/PD-L1 aAPC, 1.9 nM [1] [RLU]	IL-2-luciferase RLU, Jurkat + CHO/OKT3/PD-L1 aAPC, 5.6 nM [1] [RLU]	IL-2-luciferase RLU, Jurkat + CHO/OKT3 aAPC (no PD-L1), 5.6 nM [1] [RLU]	IL-2-luciferase RLU, Jurkat + CHO/OKT3 aAPC (no PD-L1), 16.7 nM [1] [RLU]	IL-2-luciferase RLU, Jurkat + CHO/OKT3 aAPC (no PD-L1), 50 nM [1] [RLU]	IL-2 release, primary T cells; K562/OKT3/PD-L1; 10 nM [2]	also measured
variant CD80 IgV-Fc (inert) E35D/M43L/L70M (Fc fusion)	–	–	–	–	–	–	–	–	–	–	–	–	–	479	525	683	396	439	515	52	IL-2-luciferase RLU, Jurkat + CHO/OKT3/PD-L1 aAPC, 16.7 nM [1]: 1070 RLU
variant CD80 IgV-Fc (inert) E35D/D46V/L85Q (Fc fusion)	–	–	–	–	–	–	–	–	–	–	–	–	–	611	1000	1490	511	554	720	102	IL-2 release, primary T cells; K562/OKT3/PD-L1; 100 nM [2]: 1430
variant CD80 IgV-Fc (inert) A26E/E35D/M47L/L85Q (Fc fusion)	–	–	–	–	–	–	–	–	–	–	–	–	–	509	618	886	458	415	432	268	IL-2-luciferase RLU, Jurkat + CHO/OKT3/PD-L1 aAPC, 16.7 nM [1]: 1380 RLU; IL-2-luciferase RLU, Jurkat + CHO/OKT3/PD-L1 aAPC, 50 nM [1]: 2000 RLU; IL-2 release, primary T cells; K562/OKT3/PD-L1; 1 nM [2]: 72; IL-2 release, primary T cells; K562/OKT3/PD-L1; 100 nM [2]: 1460
variant CD80 IgV-Fc (effector) E23G/A26S/E35D/T62N/A71D/L72V/L85M (Fc fusion)	23500	27000	2020	3300	5050	7010	7860	1150	1950	3220	4040	4140	15400	–	–	–	–	–	–	–	–
CD80 IgV-Fc E35D/M47L/A71G/L85M (from UniProt P33681 35-141) (Fc fusion)	–	–	–	–	–	–	–	–	–	–	–	–	–	–	–	–	–	–	–	–	Jurkat/IL2 + CHO/OKT3/PD-L1 reporter assay, RLU at CD80 Conc 5.0 nM [2]: 1510 RLU
variant CD80 IgV-Fc (inert) E35D/M47I (Fc fusion)	–	–	–	–	–	–	–	–	–	–	–	–	–	1050	1730	2790	637	710	894	3430	IL-2-luciferase RLU, Jurkat + CHO/OKT3/PD-L1 aAPC, 16.7 nM [1]: 3670 RLU; IL-2-luciferase RLU, Jurkat + CHO/OKT3/PD-L1 aAPC, 50 nM [1]: 3780 RLU; IL-2 release, primary T cells; K562/OKT3/PD-L1; 1 nM [2]: 244; IL-2 release, primary T cells; K562/OKT3/PD-L1; 100 nM [2]: 8310

Continued, in another order:

IL-2 release, primary T cells; K562/OKT3 (No PD-L1); 10 nM [1]	IL-2 release, primary T cells; K562/OKT3 (No PD-L1); 100 nM [1]	RLU, Jurkat/IL2 reporter; K562/OKT3 aAPC, FcR Dependent Cross-Linking (No PD-L1); 0.6 nM [1] [RLU]	RLU, Jurkat/IL2 reporter; K562/OKT3 aAPC, FcR Dependent Cross-Linking (No PD-L1); 1.9 nM [1] [RLU]	RLU, Jurkat/IL2 reporter; K562/OKT3 aAPC, FcR Dependent Cross-Linking (No PD-L1); 5.6 nM [1] [RLU]	RLU, Jurkat/IL2 reporter; K562/OKT3 aAPC, FcR Dependent Cross-Linking (No PD-L1); 16.7 nM [1] [RLU]	RLU, Jurkat/IL2 reporter; K562/OKT3 aAPC, FcR Dependent Cross-Linking (No PD-L1); 50 nM [1] [RLU]	RLU, Jurkat/IL2 reporter; K562/OKT3/PD-L1 aAPC, Combination of FcR and/or PD-L1 Dependent Cross-Linking; 0.6 nM [2] [RLU]	RLU, Jurkat/IL2 reporter; K562/OKT3/PD-L1 aAPC, Combination of FcR and/or PD-L1 Dependent Cross-Linking; 1.9 nM [2] [RLU]	RLU, Jurkat/IL2 reporter; K562/OKT3/PD-L1 aAPC, Combination of FcR and/or PD-L1 Dependent Cross-Linking; 5.6 nM [2] [RLU]	RLU, Jurkat/IL2 reporter; K562/OKT3/PD-L1 aAPC, Combination of FcR and/or PD-L1 Dependent Cross-Linking; 16.7 nM [2] [RLU]	RLU, Jurkat/IL2 reporter; K562/OKT3/PD-L1 aAPC, Combination of FcR and/or PD-L1 Dependent Cross-Linking; 50 nM [2] [RLU]	IL-2 release, primary T cells; K562/OKT3 (No PD-L1); 1 nM [1]	IL-2-luciferase RLU, Jurkat + CHO/OKT3/PD-L1 aAPC, 0.6 nM [1] [RLU]	IL-2-luciferase RLU, Jurkat + CHO/OKT3/PD-L1 aAPC, 1.9 nM [1] [RLU]	IL-2-luciferase RLU, Jurkat + CHO/OKT3/PD-L1 aAPC, 5.6 nM [1] [RLU]	IL-2-luciferase RLU, Jurkat + CHO/OKT3 aAPC (no PD-L1), 5.6 nM [1] [RLU]	IL-2-luciferase RLU, Jurkat + CHO/OKT3 aAPC (no PD-L1), 16.7 nM [1] [RLU]	IL-2-luciferase RLU, Jurkat + CHO/OKT3 aAPC (no PD-L1), 50 nM [1] [RLU]	IL-2 release, primary T cells; K562/OKT3/PD-L1; 10 nM [2]	Substance	also measured
20500	20600	2080	2810	4550	6960	8750	1160	1820	3120	4330	5220	–	–	–	–	–	–	–	–	variant CD80 IgV-Fc (effector) H18Y/A26T/E35D/A71D/L85Q (Fc fusion)	–
7990	8380	1400	1330	1300	1320	1200	920	1110	1400	1760	2270	7600	–	–	–	–	–	–	–	variant CD80 IgV-Fc (effector) E35D (Fc fusion)	–
8320	–	1350	1380	1420	1370	1330	1230	1590	2000	2500	2640	6850	–	–	–	–	–	–	–	variant CD80 IgV-Fc (effector) A26E/E35D/M47L/L85Q (Fc fusion)	–
